Stoichiometry N data for one substance are collected here from article doi:10.1101/2020.06.22.166298.

This assay has as its target MBP-FhtR (Faecalis heme transport Regulator fused to the maltose binding protein) (Enterococcus faecalis OG1RF). Briefly: SEC. In general terms: In gel filtration, larger molecules generally elute earlier.

In general, stoichiometry N refers to the number of molecules, sites or subunits per partner or assembly.

In turn, “MBP-FhtR (Faecalis heme transport Regulator fused to the maltose binding protein) (natural protein)” returned a stoichiometry N of 2.
